The nature of the data set: soluble on expression in E. coli; label from the status in PepcDB or PDB records.
Turning to “MGSSHHHHHHSSGRENLYFQGHMEKDRKRILITGGAGFVGSHLTDKLMMDGHEVTVVDNFFTGRKRNVEHWIGHENFELINHDVVEPLYIEVDQIYHLASPASPPNYMYNPIKTLKTNTIGTLNMLGLAKRVGARLLLASTSEVYGDPEVHPQSEDYWGHVNPIGPRACYDEGKRVAETMCYAYMKQEGVEVRVARIFNTFGPRMHMNDGRVVSNFILQALQGEPLTVYGSGSQTRAFQYVSDLVNGLVALMNSNVSSPVNLGNPEEHTILEFAQLIKNLVGSGSEIQFLSEAQDDPQKRKPDIKKAKLMLGWEPVVPLEEGLNKAIHYFRKELEYQANNQGS”, the “soluble on expression in E. coli” value is recorded as “soluble”.

As for “MLRLWEELNRVENLFLELLDDPKKKDVLLYLICYCQLVRRDGEYEVELPKLINCAEKPYKYISGNWQDVLLELGVLYLKDKKGKVYTGKEILLVKNPEGFKVGILPDYREDFYKFYTKLLKYWSVLNSRRTLGSNTTPDYYTPLLVHTFNEKLFKEAQYFSEILAMRFPKEKNLFLSVKLVSEFYREYAKTGRVKADNLNDAINFLSDTPDVFYSVNVKKFKKDIKKFLENLNKGEFYYITIEFASENRGKKRSILSKLWNFIKSLGGKRWNSRSSGMDYYSFIEHLLKKHRRQMMRSLESSTPRLQGT”, the “soluble on expression in E. coli” value is given as “not soluble”.

As for “PREVLTGGHSVSAPQENRIYVMDSVFMHLTESRVHVYDYTNGKFLGMVPTAFNGHVQVSNDGKKIYTMTTYHERITRGKRSDVVEVWDADKLTFEKEISLPPKRVQGLNYDGLFRQTTDGKFIVLQNASPATSIGIVDVAKGDYVEDVTAAAGCWSVIPQPNRPRSFMTICGDGGLLTINLGEDGKVASQSRSKQMFSVKDDPIFIAPALDKDKAHFVSYYGNVYSADFSGDEVKVDGPWSLLNDEDKAKNWVPGGYNLVGLHRASGRMYVFMHPDGKEGTHKFPAAEIWVMDTKTKQRVARIPGRDALSMTIDQQRNLMLTLDGGNVNVYDISQPEPKLLRTIEGAAEASLQVQFHPVGGT”, the “soluble on expression in E. coli” value is given as “soluble”.

For the sequence “MSLTEPEDPSRERLKHHFAQRVIHQARQILEIWQRLQRSEWSTTDMSELCEANLRLLRFAERFEQPEHTQLARSISQSLEAVDANRGRLSSNLITDLNRLMQRLSRTGLRHGDQLEQTFLPPLRKPIYVMLQDHDRAERLAKQLEFFGLSAQSLDSIPAFRSSMVERLPAAIVIDVDFCGAGMGLTLAAEAQVGLEQKLPLLFFSLHETDTPTRLAAVRAGGQEFLTGTLEASSLLEKIEVLTCVAQYEPYKVLIIDDSRAQALHTERLLNSAGIVTRTLIEPIQAMAELADFQPDLIILDMYMPACTGTELAKVIRHNDRYVSVPIIYLSAEDDLDKQLDAMSEGGDDFLTKPIKPRHLITTVRNRAARARNLKARMVRDSLTGLYNHTHILQLLEDCSFRARREGKPLSFAMLDIDHFKRVNDSHGHPMGDRVIKSLALFLKQRLRKTDFIGRYGGEEFAIVMPDTDQDAACKVLDEIRQRFAEIHYPAQPQDLWCTFSAGVVEMQEDSDSLIMASQADEALYRAKHGGRNRVQAARSSQSAIFSSESTDSVITLEGHHHHHH”, the “soluble on expression in E. coli” value was “soluble”. As to “MSSNYVMATKEGQMLLTQGKPMLDKDTGLLSYTDEQGNQKQINSDQVSQIVQRLEHHHHHH”, the “soluble on expression in E. coli” value is on record as “not soluble”. Next, “MLKKIERAQQLLKKEAAVFRCPTCHEPMHLEGVGLICQQRHQFDLSKKGTLYFLNHGVQTEYNKKMFTSRGKMIQSGMYAPVLNKIMHYLPQNKTVVDVGCGEGSFLAELSQAGLSGLKIGFDLSKEGIYLASNQPIDAFWCVADLTNLPFANEGLDTILNIFSPSHYQEFRRVLKADGTVIKIIPEENYLKELRAAFYPNDEKKQSYSNQKVVQRFAEELAVEVDERITYCFDIPEERRLDLLEMSPLEWQVSQEVKAELQQRPLEKITIDVRLLVGRKR”: “not soluble”; “MYLSHFGLEQLPFHLTPDTELFLGLAPHFEAIQTLSAAIEMGEGVSKLTGEVGTGKTMVCRMLLTHLGDEVALIYLPNPMLSGEELRQAVAAELQLDVASPVRVVEQIQTRLIELHQQGKRVVALVDEAQALSDEALETLRLFGNLETEQTKLLQIVLIGQPELDVRLAQHHLRQFRQRITFNANLRPLTQAETEVYIESRLQKAQAPYPLFNATLKKAVWRASQGIPRLINQICHKALLLAWHEQSPLVNQHHLFAAIHDTYDSCKPRFKTPILWGWSKP”: “not soluble”. In the case of “GPGSMGLTQDQTQRVKTAFLSYAQGQPKVSEAMMDQLICGAIPGLSWEQLQAKKAVRKVGADGYDLGAFFAMVNSDPAYIAFIQQHFPPAPPEQKEPEVDALALKTAKGF”, the “soluble on expression in E. coli” value is given as “soluble”.

As to “MGSDKIHHHHHHMANQVDIMKDEVAKMTLDFTEPQEILLEISPSLQKSAWQESQVYATPSSRWCAYTNQICLYAFLNWIKTESVSKASVWYSSPGIPAFWEFVNGTAILLEEKRVVLIPSEAIDDSELEVPQEWVDIPSWVADYYLAVQVTPDGEWVRIWGYITHQELKSLAHYDQVDRTYCIDARYLIKDLNAFWITYQFCIKEEMKAAIAPLPELSTAQAENMQQLLSDSSVTFVRLAVPFTTWAALLDNEQWRQCLYEQHQRCLRRAVPTQFSQVQVNLSRWLLQIYDASWQAIETFFEPNTSSLAFNFRSSSGLNAAAIKRAKLIDLGMQIEAQKVILLVALMPEVNQQVSIRVQLHPACNQPYLPANIKLVLLSEQGEILQEVQARVQDMYVQLKLFDGEVGERFSIQVTLDSCQITENFVI”, the “soluble on expression in E. coli” value is on record as “not soluble”. The same measure for “MSQLEIRDLWASIDGETILKGVNLVVPKGEVHALMGPNGAGKSTLGKILAGDPEYTVERGEILLDGENILELSPDERARKGLFLAFQYPVEVPGVTIANFLRLALQAKLGREVGVAEFWTKVKKALELLDWDESYLSRYLNEGFSGGEKKRNEILQLLVLEPTYAVLDETDSGLDIDALKVVARGVNAMRGPNFGALVITHYQRILNYIQPDKVHVMMDGRVVATGGPELALELEAKGYEWLKEKVKEGA”: “soluble”.

As to “MDPELQCIRECRLAQLKNNSGGTNGDRNSGANNGGGENSAPVGAAIANFLEPQALERLSRVALVRRDRAQAVETYLKKLIATNNVTHKITEAEIVSILNGIAKQQNSQNNSKIIFEAAALEHHHHHH”, the “soluble on expression in E. coli” value was “soluble”. Next, “GHMFESAEVGHSIDKDTYEKAVIELREALLEAQFELKQQARFPVIILINGIEGAGKGETVKLLNEWMDPRLIEVQSFLRPSDEELERPPQWRFWRRLPPKGRTGIFFGNWYSQMLYARVEGHIKEAKLDQAIDAAERFERMLCDEGALLFKFWFHLSKKQLKERLKALEKDPQHSWKLSPLDWKQSEVYDRFVHYGERVLRRTSRDYAPWYVVEGADERYRALTVGRILLEGLQAALATKERAKRQPHAAPLVSSLDNRGLLDSLDLGQYLDKDAYKEQLAAEQARLAGLIRDKRFRQHSLVAVFEGNDAAGKGGAIRRVTDALDPRQYHIVPIAAPTEEERAQPYLWRFWRHIPARRQFTIFDRSWYGRVLVERIEGFCAPADWLRAYGEINDFEEQLSEYGIIVVKFWLAIDKQTQMERFKEREKTPYKRYKITEEDWRNRDKWDQYVDAVGDMVDRTSTEIAPWTLVEANDKRFARVKVLRTINDAIEAAYKKDKGA”: “soluble”. “MDFHRALSALFTNQAAVQPLLGSLGFPFNDGTSILTTALAAQSGGKKLDTPLGILPFDSLPTTNLLTPTKKIKLEDELCASPVSSRSSTVSSSHFSSPQRSPSRKMSVPIPEEKKDSAYFERRRKNNDAAKRSRDARRQKEEQIASKAHALERENMQLRGKVSSLEQEAAQLRFLLFSKISPANSEVSCESNDSTETNDSNDSKSDSTIEV”: the “soluble on expression in E. coli” value is recorded as “not soluble”. Next, “MTIKSDKWIRRMAQEHGMIEPFVERQVRGADDSRVISYGVSSYGYDVRCAAEFKVFTNIHSAVVDPKNFDEKSFVDINSDVCIIPPNSFALARTVEYFRIPRDVLTICLGKSTYARCGIIVNVTPLEPEWEGHVTLEFSNTTNLPAKIYANEGVAQMLFLQSDEACEVSYKDRGGKYQGQR”: “soluble”. The same measure for “YNGQSETSQQPETPVFNTLPMMGKASPVSLGVPSEATANNGQQQQVQEQRRRINAMLQDYELQRRLHSEQLQFEQAQTQQAAVQVPGIQTLGTQSQ”: “soluble”. The same measure for “GPGSMPASASTRTVGDSSKNASTSSVTNAVKDPNVTLSRADVEAAFAFFDLHNHKCLKPATLKERLSAFYPNMTSSEYKFLLDEASGAPFTVDTLWNIIDNFNTTRTAMPPAVAGSLRFDPIREAFRIYDPQGSGSVDVVVLADIMKTIGFGDLSPNELTLLIRPADFDNDGKISLEDFMNFLSNHR”: “soluble”. As to “TSIMAVTFKDGVILGADSRTTTGAYIANRVTDKLTRVHDKIWCCRSGSAADTQAIADIVQYHLELYTSQYGTPSTETAASVFKELCYENKDNLTAGIIVAGYDDKNKGEVYTIPLGGSVHKLPYAIAGSGSTFIYGYCDKNFRENMSKEETVDFIKHSLSQAIKWDGSSGGVIRMVVLTAAGVERLIFYPDEYEQL”, the “soluble on expression in E. coli” value is on record as “soluble”. Next, “SMGKEKSKEPRDPDQLYSTLKSILQQVKSHQSAWPFMEPVKRTEAPGYYEVIRFPMDLKTMSERLKNRYYVSKKLFMADLQRVFTNCKEYNPPESEYYKCANILEKFFFSKIKEAGLID”: “soluble”; “MVQESTMICVDNSEYMRNGDFQPTRLQSQQDAVNLVTQCKLRANPENAVGILSMANSVQVLSSLSTEQGRLMMKNHSIEPFGKCNFIAGIKIAHLALKHRQNRNHKMRVVLFIGSPLEEIEMNELVKIAKKMKKEKVLCDVIMFGENESDGHEKFSTFVDTLNGKEGSGSSLIVVPQGSSLTDALLQSSVCKNEDGQAAFGGGGNGMDNAFGMDVENDPDLALALRVSMEEERARQAAAAAANGGAADSGADAEVAAAAAAVPLEEMDMGAMTEEQQLEWALRLSMQENAPAEQPQVQHEQMDVDGAPAVGGDNLDDLMNNPELLQQIVDDLPAANAEKDDDKEKK”: “not soluble”; “HVKVGFSPEKLRPYTTMPADFQQFWENQKAELAKFPLTYTKEHVKKYSTDQIDCYLIKLQVNQRGQSIYGYLFYPKKEGKYPVVLCPPGAGIKTIKEPLRHKYYAEQGCIRFEIEIHGLNPEMSEEEFKEISAAFNGRENGYLSNGLDSRDNYYMKRVYLACVRSIDLLTSLPEWDGKNVVVQGGSQGGALALVTAGLDQRVTACVANHPALSDMAGYKAGRAGGYPHFFRNTVDMDTPEKIRTMAYYDVVNFAQLIRADTYMTWGFNDNVCPPTTSYIVYNVLNCPKEALITPINEHWTSSDTEYGHLLWIKKHLK”: “not soluble”. Next, “STVLDSLQHTGRGDKVYWFCYGMKCYYFVMDRKTWSGCKQTCQSSSLSLLKIDDEDELKFLQLVVPSDSCWVGLSYDNKKKDWAWIDNRPSKLALNTRKYNIRDGGCMLLSKTRLDNGNCDQVFICICGKRLDKFPH”: “soluble”; “MTDSELMQLSEQVGQALKARGATVTTAESCTGGWVAKVITDIAGSSAWFERGFVTYSNEAKAQMIGVREETLAQHGAVSEPVVVEMAIGALKAARADYAVSISGIAGPDGGSEEKPVGTVWFAFATARGEGITRRECFSGDRDAVRRQATAYALQTLWQQFLQNT”: “not soluble”. Take “MSLNTLLMHCRPGFEGEVCAEIAEHAATLEIPGYAKSKPASAHVEFVCQDADGAERLMRRLRFADLIFPRQWARGPGFIELPESQRIEVLLAELASYPVCGSLWLEVLDTNAGKEVSTFCRKFEKPLRAALVKAGRLQEDPALPRLLLTFRSGREVFVGLAEPRNSALWPMGIPRLKFPREAPSRSTLKLEEAWHQFIPRSEWDKRLAPDMLAVDLGAAPGGWTWQLVNREMRVTAVDNGPMAENLMYSGLVDHQKVDGYQYRPRQRVDWMVCDIVEKPARTGALIETWIGEGLCREAVVNLKLPMKQRYAEVRKILQRLRESFDARGLKVAIGCKQLYHDREEVTCHLRRLEREGGSHHHHHH”: the “soluble on expression in E. coli” value was “soluble”.

The record behind these values is the DeepSol protein solubility set.
